Measurements from paper doi:10.1101/2024.04.20.590211.
Where “and” joins values, the source holds several entries; their conditions need not be identical. Identical values can stand only once.

Legend:
[1] = target: FluPolB, influenza B/Memphis/2003 polymerase heterotrimer (wild type) (influenza B virus B/Memphis/2003) (UniProt Q5V8Z9); assay: mass photometry
[2] = target: FluPolA/H7N9-WT, wild-type influenza A/Zhejiang/DTID-ZJU01/2013(H7N9) polymerase heterotrimer (influenza A virus A/Zhejiang/DTID-ZJU01/2013(H7N9)) (UniProt M9TI86); assay: SEC

Substance	fraction of dimers [1]	stoichiometry N [1]	stoichiometry N [2]
FluPolB, influenza B/Memphis/2003 polymerase heterotrimer (wild type) (from UniProt Q5V8Z9;Q5V8Y6;Q5V8X3) (complex)	7% and 15%	2	
FluPolA/H7N9-WT, wild-type influenza A/Zhejiang/DTID-ZJU01/2013(H7N9) polymerase heterotrimer (from UniProt M9TI86;M9TLW3;X5F427) (complex)			2
